Assays:
[1] = target: … / HLA-A2 / wild-type β2m on T2 cells (human)
[2] = target: … / HLA-A2 / β2m K58→E on T2 cells (human)

## HLA-A2 restricted parvovirus B19 specific CTL line (cells without a defined receptor)
[1]
  specific lysis (51Cr release), E:T 22:1, 4 hours: 7.3%
[2]
  specific lysis (51Cr release), E:T 22:1, 4 hours: 2.6%

— patent US20060165707A1
